From patent US20250262210A1 (TRUSTEES OF COLUMBIA UNIVERSITY IN THE CITY OF NEW YORK, published 2025)

How the values were obtained:
Test in all cases: IP/MS, LZTR1 wild type-FLAG, U87
KNL1 = KNL1 (human, UniProt Q8NG31 1-2342, limits assumed)
Outline: (§1)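 Gel slices were reduced with 5 mM DTT, alkylated with 11 mM IAA and digested overnight at 37° C. with trypsin. Peptides were analysed on an Orbitrap Fusion Tribrid by LC-MS/MS.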

RANBP6 = target: T1, RANBP6 (human, UniProt O60518 2-1105)
T1 sequence (looked up): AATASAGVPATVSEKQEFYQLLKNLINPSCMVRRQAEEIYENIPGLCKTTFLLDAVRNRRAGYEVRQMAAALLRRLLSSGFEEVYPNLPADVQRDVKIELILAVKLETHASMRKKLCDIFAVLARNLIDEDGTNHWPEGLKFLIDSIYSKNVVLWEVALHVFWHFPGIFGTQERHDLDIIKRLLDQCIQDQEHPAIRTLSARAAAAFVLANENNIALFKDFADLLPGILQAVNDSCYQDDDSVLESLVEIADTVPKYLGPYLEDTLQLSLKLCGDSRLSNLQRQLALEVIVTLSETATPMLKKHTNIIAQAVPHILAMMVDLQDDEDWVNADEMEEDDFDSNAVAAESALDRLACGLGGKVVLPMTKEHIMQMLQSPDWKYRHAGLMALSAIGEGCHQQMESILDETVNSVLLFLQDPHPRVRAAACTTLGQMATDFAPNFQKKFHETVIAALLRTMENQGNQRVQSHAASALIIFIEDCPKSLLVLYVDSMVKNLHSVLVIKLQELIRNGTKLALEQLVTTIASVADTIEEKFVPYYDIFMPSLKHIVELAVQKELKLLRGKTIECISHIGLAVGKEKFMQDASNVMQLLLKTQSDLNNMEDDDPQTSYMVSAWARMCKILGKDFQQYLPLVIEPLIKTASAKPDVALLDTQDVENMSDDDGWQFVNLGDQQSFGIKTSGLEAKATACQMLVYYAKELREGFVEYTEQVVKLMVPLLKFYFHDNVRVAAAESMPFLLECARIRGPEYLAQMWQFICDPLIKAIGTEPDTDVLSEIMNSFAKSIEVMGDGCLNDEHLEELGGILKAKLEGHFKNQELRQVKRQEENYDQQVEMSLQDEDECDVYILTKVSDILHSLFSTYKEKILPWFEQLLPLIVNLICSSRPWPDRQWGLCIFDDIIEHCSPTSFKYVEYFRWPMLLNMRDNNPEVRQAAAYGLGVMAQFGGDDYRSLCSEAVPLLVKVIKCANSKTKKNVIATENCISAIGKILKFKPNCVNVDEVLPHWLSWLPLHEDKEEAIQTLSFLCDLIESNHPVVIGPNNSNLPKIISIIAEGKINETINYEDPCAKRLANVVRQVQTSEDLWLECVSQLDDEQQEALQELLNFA
Outline: as §1

LAMB3 = target: T2, LAMB3 (human, UniProt Q13751 18-1172)
T2 sequence (looked up): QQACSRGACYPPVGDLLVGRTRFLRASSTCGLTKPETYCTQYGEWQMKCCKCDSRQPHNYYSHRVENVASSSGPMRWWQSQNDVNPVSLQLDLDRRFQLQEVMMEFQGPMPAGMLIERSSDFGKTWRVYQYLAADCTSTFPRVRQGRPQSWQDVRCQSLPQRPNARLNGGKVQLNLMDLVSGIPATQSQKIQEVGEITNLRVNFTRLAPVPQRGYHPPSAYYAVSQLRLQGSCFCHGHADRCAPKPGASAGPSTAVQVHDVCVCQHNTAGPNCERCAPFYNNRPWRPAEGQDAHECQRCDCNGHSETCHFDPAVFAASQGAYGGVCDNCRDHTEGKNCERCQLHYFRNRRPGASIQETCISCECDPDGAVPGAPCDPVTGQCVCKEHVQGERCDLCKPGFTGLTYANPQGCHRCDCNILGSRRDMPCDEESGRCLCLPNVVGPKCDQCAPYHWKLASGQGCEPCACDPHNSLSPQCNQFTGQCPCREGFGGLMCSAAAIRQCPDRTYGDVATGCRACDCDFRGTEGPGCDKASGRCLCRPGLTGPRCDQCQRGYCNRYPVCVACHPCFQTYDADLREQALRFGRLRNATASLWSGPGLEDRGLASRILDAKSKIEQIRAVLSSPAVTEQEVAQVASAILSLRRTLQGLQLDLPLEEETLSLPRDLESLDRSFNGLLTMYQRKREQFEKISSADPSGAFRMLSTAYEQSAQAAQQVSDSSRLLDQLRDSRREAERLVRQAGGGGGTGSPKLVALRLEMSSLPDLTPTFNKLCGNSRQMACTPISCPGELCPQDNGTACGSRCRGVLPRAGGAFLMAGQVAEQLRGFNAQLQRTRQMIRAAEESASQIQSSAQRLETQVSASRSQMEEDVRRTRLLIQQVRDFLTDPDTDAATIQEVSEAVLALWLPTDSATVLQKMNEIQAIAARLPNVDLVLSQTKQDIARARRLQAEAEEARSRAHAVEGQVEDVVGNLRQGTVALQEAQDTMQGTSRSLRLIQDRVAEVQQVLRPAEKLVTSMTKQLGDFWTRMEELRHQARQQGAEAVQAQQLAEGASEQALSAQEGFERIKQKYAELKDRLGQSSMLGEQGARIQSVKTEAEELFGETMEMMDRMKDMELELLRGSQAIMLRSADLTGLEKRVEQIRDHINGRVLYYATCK
Outline: as §1

HELZ = HELZ (human, UniProt P42694 1-1942, limits assumed)
Outline: as §1

Measured: binding result

Sequence of HELZ (P42694 whole entry): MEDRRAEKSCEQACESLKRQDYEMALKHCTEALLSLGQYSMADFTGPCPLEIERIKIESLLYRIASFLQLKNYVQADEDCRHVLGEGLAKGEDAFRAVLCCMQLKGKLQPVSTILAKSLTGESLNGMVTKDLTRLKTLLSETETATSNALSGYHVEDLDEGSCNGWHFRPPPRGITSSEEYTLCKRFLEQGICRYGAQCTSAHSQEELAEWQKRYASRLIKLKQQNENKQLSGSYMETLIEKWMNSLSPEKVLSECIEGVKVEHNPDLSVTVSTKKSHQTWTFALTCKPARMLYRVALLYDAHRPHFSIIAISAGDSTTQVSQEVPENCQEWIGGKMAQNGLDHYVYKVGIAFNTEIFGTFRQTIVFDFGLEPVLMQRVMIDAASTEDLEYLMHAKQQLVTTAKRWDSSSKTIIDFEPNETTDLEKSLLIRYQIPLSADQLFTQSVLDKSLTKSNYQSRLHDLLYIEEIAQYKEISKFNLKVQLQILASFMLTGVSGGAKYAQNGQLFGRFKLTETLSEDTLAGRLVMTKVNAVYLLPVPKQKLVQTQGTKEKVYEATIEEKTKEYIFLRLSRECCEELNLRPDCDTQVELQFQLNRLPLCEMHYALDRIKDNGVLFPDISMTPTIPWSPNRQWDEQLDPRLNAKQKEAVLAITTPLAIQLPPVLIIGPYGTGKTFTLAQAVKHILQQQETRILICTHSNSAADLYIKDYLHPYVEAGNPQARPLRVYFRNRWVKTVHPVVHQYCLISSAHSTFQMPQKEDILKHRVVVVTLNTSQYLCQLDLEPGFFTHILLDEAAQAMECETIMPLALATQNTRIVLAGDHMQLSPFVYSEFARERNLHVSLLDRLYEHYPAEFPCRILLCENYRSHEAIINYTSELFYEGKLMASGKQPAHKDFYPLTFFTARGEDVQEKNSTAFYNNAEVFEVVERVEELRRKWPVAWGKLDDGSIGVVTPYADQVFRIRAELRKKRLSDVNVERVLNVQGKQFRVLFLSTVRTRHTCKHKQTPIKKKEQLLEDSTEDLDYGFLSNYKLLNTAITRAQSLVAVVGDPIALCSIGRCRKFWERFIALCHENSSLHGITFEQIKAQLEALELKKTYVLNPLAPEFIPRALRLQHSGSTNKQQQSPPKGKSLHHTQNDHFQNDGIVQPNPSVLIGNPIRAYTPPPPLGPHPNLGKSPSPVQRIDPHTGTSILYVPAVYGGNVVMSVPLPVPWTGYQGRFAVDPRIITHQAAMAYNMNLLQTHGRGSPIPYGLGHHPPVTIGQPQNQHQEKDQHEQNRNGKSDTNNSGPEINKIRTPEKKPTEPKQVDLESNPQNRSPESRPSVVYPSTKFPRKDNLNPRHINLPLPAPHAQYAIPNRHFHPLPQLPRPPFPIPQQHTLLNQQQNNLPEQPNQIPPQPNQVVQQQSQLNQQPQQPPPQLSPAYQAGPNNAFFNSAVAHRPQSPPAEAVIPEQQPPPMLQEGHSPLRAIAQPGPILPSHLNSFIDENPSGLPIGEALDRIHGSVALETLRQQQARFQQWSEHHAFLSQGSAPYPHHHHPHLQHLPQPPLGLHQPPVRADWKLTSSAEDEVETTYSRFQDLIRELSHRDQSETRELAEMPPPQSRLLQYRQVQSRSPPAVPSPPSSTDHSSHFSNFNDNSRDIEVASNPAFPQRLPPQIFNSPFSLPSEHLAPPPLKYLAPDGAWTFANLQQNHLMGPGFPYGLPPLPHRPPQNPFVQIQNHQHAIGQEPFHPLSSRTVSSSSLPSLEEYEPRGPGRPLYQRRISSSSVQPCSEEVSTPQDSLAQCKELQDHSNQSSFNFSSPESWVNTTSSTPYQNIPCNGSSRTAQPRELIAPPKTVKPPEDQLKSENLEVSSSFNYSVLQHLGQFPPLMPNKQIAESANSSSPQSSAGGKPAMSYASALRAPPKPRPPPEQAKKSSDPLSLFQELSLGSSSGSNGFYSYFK
Sequence of KNL1 (Q8NG31 whole entry, the tested form may be a part): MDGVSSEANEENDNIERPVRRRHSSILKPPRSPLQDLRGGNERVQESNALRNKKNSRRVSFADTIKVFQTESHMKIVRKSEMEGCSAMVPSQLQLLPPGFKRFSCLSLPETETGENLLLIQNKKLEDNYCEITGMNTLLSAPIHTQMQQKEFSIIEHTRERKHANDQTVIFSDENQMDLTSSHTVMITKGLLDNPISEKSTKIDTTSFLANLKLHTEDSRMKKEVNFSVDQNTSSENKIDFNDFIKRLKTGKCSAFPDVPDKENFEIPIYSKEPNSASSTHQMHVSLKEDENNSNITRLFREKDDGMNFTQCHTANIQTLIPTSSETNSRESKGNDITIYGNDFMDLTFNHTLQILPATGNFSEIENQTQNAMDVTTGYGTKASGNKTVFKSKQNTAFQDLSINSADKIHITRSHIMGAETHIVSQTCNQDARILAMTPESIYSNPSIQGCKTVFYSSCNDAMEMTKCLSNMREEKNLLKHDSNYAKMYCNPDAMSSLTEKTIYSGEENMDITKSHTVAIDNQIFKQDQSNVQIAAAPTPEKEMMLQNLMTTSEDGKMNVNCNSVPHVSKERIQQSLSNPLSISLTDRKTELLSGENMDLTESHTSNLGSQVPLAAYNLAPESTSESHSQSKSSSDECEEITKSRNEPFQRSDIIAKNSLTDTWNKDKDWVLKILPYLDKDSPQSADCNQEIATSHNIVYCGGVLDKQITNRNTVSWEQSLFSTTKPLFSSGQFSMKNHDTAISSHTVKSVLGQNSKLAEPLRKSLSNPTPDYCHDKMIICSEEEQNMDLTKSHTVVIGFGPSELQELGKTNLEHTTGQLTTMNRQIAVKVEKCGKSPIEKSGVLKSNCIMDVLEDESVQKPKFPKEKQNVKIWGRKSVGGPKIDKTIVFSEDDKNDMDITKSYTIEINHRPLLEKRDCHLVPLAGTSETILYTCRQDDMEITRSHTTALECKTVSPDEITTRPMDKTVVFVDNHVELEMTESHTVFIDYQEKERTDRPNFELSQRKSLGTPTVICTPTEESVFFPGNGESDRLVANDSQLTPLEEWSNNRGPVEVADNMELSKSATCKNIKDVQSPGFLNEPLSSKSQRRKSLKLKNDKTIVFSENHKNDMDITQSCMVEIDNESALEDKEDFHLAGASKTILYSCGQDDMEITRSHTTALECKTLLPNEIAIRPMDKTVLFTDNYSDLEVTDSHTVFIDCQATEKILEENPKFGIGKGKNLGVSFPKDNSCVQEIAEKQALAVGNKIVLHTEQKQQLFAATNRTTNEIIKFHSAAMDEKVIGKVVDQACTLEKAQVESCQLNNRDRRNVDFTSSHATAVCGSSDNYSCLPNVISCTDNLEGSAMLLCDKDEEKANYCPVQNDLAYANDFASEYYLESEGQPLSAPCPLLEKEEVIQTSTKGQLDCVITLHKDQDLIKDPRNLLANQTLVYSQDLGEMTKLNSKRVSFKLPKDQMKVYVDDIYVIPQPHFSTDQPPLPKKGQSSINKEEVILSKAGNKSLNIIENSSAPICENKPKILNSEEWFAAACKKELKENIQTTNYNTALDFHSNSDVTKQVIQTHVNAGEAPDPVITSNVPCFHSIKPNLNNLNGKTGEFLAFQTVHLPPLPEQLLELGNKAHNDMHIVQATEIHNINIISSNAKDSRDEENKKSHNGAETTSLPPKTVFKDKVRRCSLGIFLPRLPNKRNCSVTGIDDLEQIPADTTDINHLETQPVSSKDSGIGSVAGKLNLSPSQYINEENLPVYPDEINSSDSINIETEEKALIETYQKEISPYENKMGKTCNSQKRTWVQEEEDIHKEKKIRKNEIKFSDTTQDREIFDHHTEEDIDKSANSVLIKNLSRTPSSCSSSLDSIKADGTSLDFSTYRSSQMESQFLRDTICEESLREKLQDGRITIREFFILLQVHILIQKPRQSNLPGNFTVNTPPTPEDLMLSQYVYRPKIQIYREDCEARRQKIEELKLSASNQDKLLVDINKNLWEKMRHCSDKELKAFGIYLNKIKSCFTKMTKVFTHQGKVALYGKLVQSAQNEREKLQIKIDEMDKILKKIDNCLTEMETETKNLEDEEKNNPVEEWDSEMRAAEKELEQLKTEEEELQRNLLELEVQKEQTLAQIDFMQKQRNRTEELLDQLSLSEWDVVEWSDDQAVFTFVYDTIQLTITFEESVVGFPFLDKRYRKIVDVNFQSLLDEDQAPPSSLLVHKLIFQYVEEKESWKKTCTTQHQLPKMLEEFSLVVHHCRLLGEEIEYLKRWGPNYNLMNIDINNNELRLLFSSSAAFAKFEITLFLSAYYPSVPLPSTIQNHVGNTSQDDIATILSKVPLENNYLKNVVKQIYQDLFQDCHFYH

B1: LZTR1-FLAG (other, human, UniProt Q8N653 1-840, looked up)
chain: MAGPGSTGGQIGAAALAGGARSKVAPSVDFDHSCSDSVEYLTLNFGPFETVHRWRRLPPCDEFVGARRSKHTVVAYKDAIYVFGGDNGKTMLNDLLRFDVKDCSWCRAFTTGTPPAPRYHHSAVVYGSSMFVFGGYTGDIYSNSNLKNKNDLFEYKFATGQWTEWKIEGRLPVARSAHGATVYSDKLWIFAGYDGNARLNDMWTIGLQDRELTCWEEVAQSGEIPPSCCNFPVAVCRDKMFVFSGQSGAKITNNLFQFEFKDKTWTRIPTEHLLRGSPPPPQRRYGHTMVAFDRHLYVFGGAADNTLPNELHCYDVDFQTWEVVQPSSDSEVGGAEVPERACASEEVPTLTYEERVGFKKSRDVFGLDFGTTSAKQPTQPASELPSGRLFHAAAVISDAMYIFGGTVDNNIRSGEMYRFQFSCYPKCTLHEDYGRLWESRQFCDVEFVLGEKEECVQGHVAIVTARSRWLRRKITQARERLAQKLEQEAAPVPREAPGVAAGGARPPLLHVAIREAEARPFEVLMQFLYTDKIKYPRKGHVEDVLLIMDVYKLALSFQLCRLEQLCRQYIEASVDLQNVLVVCESAARLQLSQLKEHCLNFVVKESHFNQVIMMKEFERLSSPLIVEIVRRKQQPPPRTPLDQPVDIGTSLIQDMKAYLEGAGAEFCDITLLLDGHPRPAHKAILAARSSYFEAMFRSFMPEDGQVNISIGEMVPSRQAFESMLRYIYYGEVNMPPEDSLYLFAAPYYYGFYNNRLQAYCKQNLEMNVTVQNVLQILEAADKTQALDMKRHCLHIIVHQFTKVSKLPTLRSLSQQLLLDIIDSLASHISDKQCAELGADI
notes: Expressed in HEK 293T, HeLa or U87 cells; used as cell lysate; also called LZTR1 wild type-FLAG; LZTR1 WT; not shown: FLAG tag at the C-terminus
binds: all assays above
